B1: DLC1 (parent)
chain: AIQGISEKEKAEIEAKEACDWLRA

Variants of: B1
Assay: protein stability index of a GFP-peptide fusion (GPS, HEK-293T) (PSI 1-6); higher = more stable
Conditions: c terminus: a fixed tail appended
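Also: lentivirally expressed fusions sorted by FACS into six bins by GFP to DsRed ratio, PSI derived from sequencing read proportions per bin multiplied by bin number.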

Q: Which protein stability index does the source give for E7Y here?
A: 3.63

Q: With E7T as the variant, how does the protein stability index read?
A: 4.14

Q: For E7D, which protein stability index is on record?
A: 4.39

Q: With E7W as the variant, how does the protein stability index read?
A: 3.58

Q: Which protein stability index does the source give for E7P here?
A: 3.71

Q: Which protein stability index does the source give for E7I here?
A: 3.63

Q: With E7V as the variant, how does the protein stability index read?
A: 3.88

Q: Which protein stability index does the source give for E7C here?
A: 3.61

Q: With E7N as the variant, how does the protein stability index read?
A: 3.72

Q: For E7H, which protein stability index is on record?
A: 3.86

Q: For W21F, which protein stability index is on record?
A: 4.66

Q: For W21T, which protein stability index is on record?
A: 5.17

Q: With W21H as the variant, how does the protein stability index read?
A: 5.29

Q: For W21Q, which protein stability index is on record?
A: 5.47

Q: Which protein stability index does the source give for W21L here?
A: 5.22

Q: Which protein stability index does the source give for E17P here?
A: 4.41

Q: With E17Q as the variant, how does the protein stability index read?
A: 3.73

Q: With E17G as the variant, how does the protein stability index read?
A: 4.18

Q: For E17Y, which protein stability index is on record?
A: 3.79

Q: For E17L, which protein stability index is on record?
A: 3.76

Q: For E17N, which protein stability index is on record?
A: 3.63

Q: With E17A as the variant, how does the protein stability index read?
A: 4.14

Q: With A24P as the variant, how does the protein stability index read?
A: 4.64

Q: For A24R, which protein stability index is on record?
A: 4.23

Q: For A24F, which protein stability index is on record?
A: 4.32

Q: For A24N, which protein stability index is on record?
A: 4.75

Q: With I2C as the variant, how does the protein stability index read?
A: 4.88

Q: With I2S as the variant, how does the protein stability index read?
A: 4.99

Q: Which protein stability index does the source give for I2L here?
A: 4.91

Q: Which protein stability index does the source give for I2G here?
A: 4.57

Q: For I2R, which protein stability index is on record?
A: 4.78

Q: Which protein stability index does the source give for I2Q here?
A: 4.79

Q: With I2N as the variant, how does the protein stability index read?
A: 5.13

Q: For I2E, which protein stability index is on record?
A: 5.26

Q: Which protein stability index does the source give for I2W here?
A: 4.37

Q: For I2Y, which protein stability index is on record?
A: 4.24

Q: Which protein stability index does the source give for R23E here?
A: 5.36

Q: For R23L, which protein stability index is on record?
A: 3.87

Q: Which protein stability index does the source give for R23Q here?
A: 5.25

Q: With R23F as the variant, how does the protein stability index read?
A: 4.33

Q: Which protein stability index does the source give for R23S here?
A: 4.95

Q: With K10Q as the variant, how does the protein stability index read?
A: 4.57

Q: Which protein stability index does the source give for K10S here?
A: 4.61

Q: Which protein stability index does the source give for K10P here?
A: 4.18

Q: With K10V as the variant, how does the protein stability index read?
A: 3.9

Q: Which protein stability index does the source give for A1P here?
A: 4.47

Q: For A1S, which protein stability index is on record?
A: 4.67

Q: With A1N as the variant, how does the protein stability index read?
A: 5.11

Q: Which protein stability index does the source give for A1C here?
A: 4.09

Q: With A1E as the variant, how does the protein stability index read?
A: 4.74

Q: Which protein stability index does the source give for E12W here?
A: 3.26

Q: With E12V as the variant, how does the protein stability index read?
A: 4.17

Q: For E12R, which protein stability index is on record?
A: 3.86

Q: For E12T, which protein stability index is on record?
A: 4.32

Q: With E12I as the variant, how does the protein stability index read?
A: 4.02

Q: For E12Q, which protein stability index is on record?
A: 4.18

Q: For E12D, which protein stability index is on record?
A: 4.43

Q: With C19I as the variant, how does the protein stability index read?
A: 4.09

Q: Which protein stability index does the source give for C19A here?
A: 4.79

Q: Which protein stability index does the source give for C19G here?
A: 4.43

Q: With C19K as the variant, how does the protein stability index read?
A: 4.63

Q: For C19N, which protein stability index is on record?
A: 4.89

Q: For C19M, which protein stability index is on record?
A: 4.39

Q: For D20N, which protein stability index is on record?
A: 4.3

Q: With D20C as the variant, how does the protein stability index read?
A: 3.21

Q: Which protein stability index does the source give for D20H here?
A: 3.95

Q: With D20A as the variant, how does the protein stability index read?
A: 3.99

Q: With D20F as the variant, how does the protein stability index read?
A: 3.75

Q: Which protein stability index does the source give for E14I here?
A: 3.81

Q: Which protein stability index does the source give for E14G here?
A: 3.73

Q: Which protein stability index does the source give for E14V here?
A: 3.24

Q: For E14K, which protein stability index is on record?
A: 3.5

Q: Which protein stability index does the source give for E14L here?
A: 3.87

Q: For E14W, which protein stability index is on record?
A: 2.86

Q: With E14H as the variant, how does the protein stability index read?
A: 3.74

Q: With E14P as the variant, how does the protein stability index read?
A: 4.12

Q: Which protein stability index does the source give for E14A here?
A: 4.1

Q: For E14C, which protein stability index is on record?
A: 4.07

Q: For A15F, which protein stability index is on record?
A: 3.57

Q: With A15D as the variant, how does the protein stability index read?
A: 4.4

Q: With A15T as the variant, how does the protein stability index read?
A: 3.76

Q: Which protein stability index does the source give for A15S here?
A: 4.81

Q: For A15L, which protein stability index is on record?
A: 4

Q: With A15N as the variant, how does the protein stability index read?
A: 4.24

Q: Which protein stability index does the source give for A15E here?
A: 4.81

Q: With I13M as the variant, how does the protein stability index read?
A: 4.78

Q: Which protein stability index does the source give for I13E here?
A: 5.08

Q: With I13T as the variant, how does the protein stability index read?
A: 4.16

Q: For I13K, which protein stability index is on record?
A: 4.89

Q: With I13C as the variant, how does the protein stability index read?
A: 5.09

Q: For I13G, which protein stability index is on record?
A: 5.08

Q: For I13L, which protein stability index is on record?
A: 4.21

Q: With I13V as the variant, how does the protein stability index read?
A: 4.64

Q: For G4T, which protein stability index is on record?
A: 4.2

Q: With G4P as the variant, how does the protein stability index read?
A: 4.33

Q: With G4E as the variant, how does the protein stability index read?
A: 4.53

Q: With G4W as the variant, how does the protein stability index read?
A: 3.8

Q: For G4D, which protein stability index is on record?
A: 4.79

Q: For G4V, which protein stability index is on record?
A: 3.9

Q: With G4I as the variant, how does the protein stability index read?
A: 3.15

Q: Which protein stability index does the source give for G4L here?
A: 3.27

Q: With G4M as the variant, how does the protein stability index read?
A: 3.92

Q: Which protein stability index does the source give for K8Q here?
A: 4.3

Q: Which protein stability index does the source give for K8A here?
A: 3.75

Q: For K8E, which protein stability index is on record?
A: 5.05

Q: With K8G as the variant, how does the protein stability index read?
A: 4.6

Q: With K8F as the variant, how does the protein stability index read?
A: 3.97

Q: With L22T as the variant, how does the protein stability index read?
A: 4.82

Q: Which protein stability index does the source give for L22Y here?
A: 4.22

Q: With L22N as the variant, how does the protein stability index read?
A: 5.24

Q: With L22S as the variant, how does the protein stability index read?
A: 5.09

Q: For L22A, which protein stability index is on record?
A: 5.03

Q: For L22R, which protein stability index is on record?
A: 4.5

Q: For L22W, which protein stability index is on record?
A: 4.28

Q: With L22P as the variant, how does the protein stability index read?
A: 5.2

Q: Which protein stability index does the source give for L22E here?
A: 5.62

Q: Which protein stability index does the source give for L22M here?
A: 4.73

Q: With E9N as the variant, how does the protein stability index read?
A: 4.5

Q: With E9C as the variant, how does the protein stability index read?
A: 3.76

Q: For E9W, which protein stability index is on record?
A: 3.63

Q: With E9H as the variant, how does the protein stability index read?
A: 4.71

Q: With E9K as the variant, how does the protein stability index read?
A: 3.97

Q: With E9Q as the variant, how does the protein stability index read?
A: 4.14

Q: With E9M as the variant, how does the protein stability index read?
A: 3.22

Q: With E9A as the variant, how does the protein stability index read?
A: 4.19

Q: For E9F, which protein stability index is on record?
A: 2.69

Q: With A11E as the variant, how does the protein stability index read?
A: 4.87

Q: Which protein stability index does the source give for A11V here?
A: 4.61

Q: For A11C, which protein stability index is on record?
A: 4.32

Q: For A11I, which protein stability index is on record?
A: 3.67

Q: Which protein stability index does the source give for A11L here?
A: 4.23

Q: With A11T as the variant, how does the protein stability index read?
A: 4.67

Q: With S6Q as the variant, how does the protein stability index read?
A: 4.74

Q: For S6M, which protein stability index is on record?
A: 4.04

Q: With S6T as the variant, how does the protein stability index read?
A: 4.73

Q: With S6P as the variant, how does the protein stability index read?
A: 4.88

Q: Which protein stability index does the source give for S6D here?
A: 4.84

Q: With S6H as the variant, how does the protein stability index read?
A: 4.28

Q: With S6Y as the variant, how does the protein stability index read?
A: 3.48

Q: For S6A, which protein stability index is on record?
A: 4.31

Q: Which protein stability index does the source give for S6C here?
A: 4.3

Q: For S6G, which protein stability index is on record?
A: 4.39

Q: With K16P as the variant, how does the protein stability index read?
A: 3.58

Q: For K16E, which protein stability index is on record?
A: 5.21

Q: For K16N, which protein stability index is on record?
A: 4.82

Q: For K16H, which protein stability index is on record?
A: 4.32

Q: Which protein stability index does the source give for K16S here?
A: 4.1

Q: With Q3I as the variant, how does the protein stability index read?
A: 3.88

Q: With Q3T as the variant, how does the protein stability index read?
A: 4.81

Q: For Q3G, which protein stability index is on record?
A: 4.33

Q: With Q3P as the variant, how does the protein stability index read?
A: 4.19

Q: For Q3M, which protein stability index is on record?
A: 4.18

Q: With Q3H as the variant, how does the protein stability index read?
A: 4.68

Q: With I5A as the variant, how does the protein stability index read?
A: 4.77

Q: With I5H as the variant, how does the protein stability index read?
A: 4.94

Q: For I5G, which protein stability index is on record?
A: 4.9

Q: With I5S as the variant, how does the protein stability index read?
A: 4.8

Q: With I5F as the variant, how does the protein stability index read?
A: 4.18

Q: For I5R, which protein stability index is on record?
A: 4.57

Q: For I5P, which protein stability index is on record?
A: 4.46

Q: For I5C, which protein stability index is on record?
A: 4.66

Q: For A18V, which protein stability index is on record?
A: 4.26

Q: Which protein stability index does the source give for A18T here?
A: 4.35

Q: For A18K, which protein stability index is on record?
A: 4.06

Q: Which protein stability index does the source give for A18G here?
A: 4.35

Q: With A18F as the variant, how does the protein stability index read?
A: 3.82

Q: Which protein stability index does the source give for A18L here?
A: 4.2

Source: the supplement of paper PMC10567573
